Data from patent publication US20260194540A1 (ARIZONA BOARD OF REGENTS ON BEHALF OF ARIZONA STATE …, published 2026).

Biological target: T1, TDP-43 from healthy human brain tissue (human, UniProt Q13148 1-414)
T1 construct: also called healthy TDP-43; healthy IP TDP-43
Experiment: phage ELISA on human brain tissue

T1 sequence (Q13148 whole entry): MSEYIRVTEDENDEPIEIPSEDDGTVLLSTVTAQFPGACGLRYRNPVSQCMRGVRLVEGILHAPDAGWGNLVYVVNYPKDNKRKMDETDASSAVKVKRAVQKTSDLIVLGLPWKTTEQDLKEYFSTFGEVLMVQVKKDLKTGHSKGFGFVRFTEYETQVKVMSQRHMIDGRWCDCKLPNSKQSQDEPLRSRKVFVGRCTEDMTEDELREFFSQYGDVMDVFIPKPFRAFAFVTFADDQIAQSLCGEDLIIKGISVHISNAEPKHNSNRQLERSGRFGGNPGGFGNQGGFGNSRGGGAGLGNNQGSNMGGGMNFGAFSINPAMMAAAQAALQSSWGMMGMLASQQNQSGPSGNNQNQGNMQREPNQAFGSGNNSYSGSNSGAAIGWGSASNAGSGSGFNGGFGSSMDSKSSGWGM

B1: TDP-43 monomer clone #5 (scFv)
scFv: MAEVQLLESGGGLVRPGGSLRLSCAASGFTFSSYAMSWVRQAPGKGLEWVSDIANTGDATGYADSVKGRFTISRDNSKNTLYLQMNSLRAEDTAVYYCAKTGAAFDYWGQGTLVTVSSGGGGSGGGGSGGGGSTDIQMTQSPSSLSASVGDRVTITCRASQSISSYLNWYQQKPGKAPKLLIYAASTLQSGVPSRFSGSGSGTDFTLTISSLQPEDFATYYCQQSSSDPATFGQGTKVEIKRAA
notes: Tested as scFv attached to a phage particle, tagged with a signal moiety when used for detection; also called monomer phage #5
binding result: binds
